Earlier results, collected in publication PMC5519984.
Read-outs that look alike come from different tables or passages of the source.

Experiments:
Ras (Homo sapiens) [1] = biological target: Ras (Homo sapiens) (UniProt P01112)
Ras (Homo sapiens) [2] = biological target: Ras (Homo sapiens) (UniProt P01112); remark: listed apart in the source

HBS3 929-944 (from UniProt Q07889)
Kd (Ras (Homo sapiens) [1]): 28 µM
Kd (Ras (Homo sapiens) [2]): 158 µM
